{"source": "patent US11884740", "about": "(TG THERAPEUTICS, dated 2024)", "test_in_all_cases": "cell-based or functional assay", "key": {"[1]": {"biological_target": "T1, FcγIIIA Receptor on the effector cells (human, UniProt P08637 17-254)", "T1 sequence (P08637 17-254)": "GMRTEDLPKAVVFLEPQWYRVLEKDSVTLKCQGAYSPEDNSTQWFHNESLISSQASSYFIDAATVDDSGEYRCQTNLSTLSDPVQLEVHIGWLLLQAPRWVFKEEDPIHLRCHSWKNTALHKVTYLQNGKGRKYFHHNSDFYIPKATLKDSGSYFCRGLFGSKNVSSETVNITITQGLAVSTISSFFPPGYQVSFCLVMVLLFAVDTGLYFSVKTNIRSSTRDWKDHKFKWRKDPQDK"}, "[2]": {"biological_target": "C1q Receptor in the complement system (rabbit serum as the source of complement) (rabbit)"}, "[3]": {"biological_target": "T1, FcγIIIA Receptor on the effector cells", "remark": "listed apart in the source"}}}
{"binder": "TG-1101 (TG Therapeutics, Inc.) (antibody, human IgG1, kappa) heavy: not shown light: QIVLSQSPAILSASPGEKVTMTCRASSSVSYMHWYQQKPGSSPKPWIYATSNLASGVPARFSGSGSGTSYSFTISRVEAEDAATYYCQQWTFNPPTFGGGTRLEIKRTVAAPSVFIFPPSDEQLKSGTASVVCLLNNFYPREAKVQWKVDNALQSGNSQESVTEQDSKDSTYSLSSTLTLSKADYEKHKVYACEVTHQGLSSPVTKSFNRGEC", "values": [{"measurement": "EC50 of ADCC assay Using Primary NK Cells (Raji targets, LDH release)", "setting": "[1]", "value": 49000, "unit": "ng/mL"}, {"measurement": "EC50 (CDC, Jeko-1 cells, rabbit complement)", "setting": "[2]", "value": 670, "unit": "ng/mL"}, {"measurement": "EC50 (ADCC, Raji targets, KILR CD16a effector cells)", "setting": "[3]", "value": 0.00242, "unit": "ng/mL"}]}
